Experimental data reported in patent US20200054723A1 (ALLAKOS, published 2020).
“And” between values parts separate entries of the source, which are not always exact repeats. Equal entries are not always repeated.

Columns and labels:
[1] = biological target: T1, human Siglec-8 Domains 1, 2, and 3 Fusion Protein (human); test: Western blot of reduced SDS-PAGE (linear epitope)
T1 construct: fused to human Ig-Fc, expressed in CHO cells; also called Domain 1 + 2 + 3-Fc

[2] = biological target: T2, baboon Siglec-8 Domains 1, 2, and 3 Fusion Protein (olive baboon (Papio anubis)); test: ELISA, baboon cross-reactivity
T2 construct: fused to human Ig-Fc
T2 sequence (chain, as listed by the source limits assumed): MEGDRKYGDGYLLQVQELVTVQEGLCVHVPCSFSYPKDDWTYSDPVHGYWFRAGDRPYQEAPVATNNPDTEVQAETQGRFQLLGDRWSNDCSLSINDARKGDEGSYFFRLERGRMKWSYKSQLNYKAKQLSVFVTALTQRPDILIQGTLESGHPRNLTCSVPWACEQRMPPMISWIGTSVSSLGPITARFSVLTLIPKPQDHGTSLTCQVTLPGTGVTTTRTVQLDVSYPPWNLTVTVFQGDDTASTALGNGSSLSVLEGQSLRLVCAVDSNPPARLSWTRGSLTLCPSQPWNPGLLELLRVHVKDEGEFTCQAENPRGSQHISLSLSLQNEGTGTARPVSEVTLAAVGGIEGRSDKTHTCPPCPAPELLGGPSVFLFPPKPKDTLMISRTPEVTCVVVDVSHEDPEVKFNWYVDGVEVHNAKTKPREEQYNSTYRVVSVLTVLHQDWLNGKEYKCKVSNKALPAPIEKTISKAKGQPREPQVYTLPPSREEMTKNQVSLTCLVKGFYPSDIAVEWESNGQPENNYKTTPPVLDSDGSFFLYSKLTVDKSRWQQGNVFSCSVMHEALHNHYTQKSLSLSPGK
Experimental: (§1) To identify the region comprising the epitope for anti-Siglec-8 antibodies, fusion proteins containing each of the Siglec-8 extracellular domains fused to human Ig-Fc were expressed and purified from CHO cells.
(§2) For the antibody binding assays, ELISA plates (MaxiSorp; Nunc) were coated overnight at 4° C. with fusion protein at 0.2 μg/ml and blocked for 1 hour at room temperature with 2% BSA in PBS. Antibodies at 1 μg/ml were added and the plates were incubated for 2 hours at room temperature. After washing the plates, horseradish peroxidase conjugated secondary antibody was added and the plates were incubated for 1 hour. Secondary antibodies were anti-human H+L HRP (Jackson ImmunoResearch, Catalog Number 709-035-149) for humanized antibodies or anti-mouse H+L HRP (Jackson ImmunoResearch, Catalog Number 715-035-151) for mouse antibodies. The plates were developed with TMB Substrate (Sigma, Catalog Number T0440-1L).

[3] = biological target: T3, human Siglec-8 on human cells (eosinophils, mast cells) (human, UniProt Q9NYZ4 17-499); test: cell-based or functional assay
T3 sequence (Q9NYZ4 17-499): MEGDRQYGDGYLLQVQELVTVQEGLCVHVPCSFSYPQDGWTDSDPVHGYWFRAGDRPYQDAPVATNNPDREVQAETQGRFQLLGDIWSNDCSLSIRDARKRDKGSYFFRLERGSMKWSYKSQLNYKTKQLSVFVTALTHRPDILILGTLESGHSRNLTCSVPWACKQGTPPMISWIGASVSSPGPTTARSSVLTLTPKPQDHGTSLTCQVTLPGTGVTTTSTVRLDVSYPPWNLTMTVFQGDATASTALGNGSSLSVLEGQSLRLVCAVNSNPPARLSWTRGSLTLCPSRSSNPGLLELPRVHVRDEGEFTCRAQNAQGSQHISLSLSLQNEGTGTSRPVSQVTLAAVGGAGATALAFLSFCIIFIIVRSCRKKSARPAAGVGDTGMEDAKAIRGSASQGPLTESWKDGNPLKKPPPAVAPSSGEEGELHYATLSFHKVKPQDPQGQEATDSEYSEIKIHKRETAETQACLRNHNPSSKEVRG

[4] = biological target: T4, recombinant human Siglec-8 extracellular domain (ECD) (human, UniProt Q9NYZ4 17-363); test: ELISA, coated Siglec-8 ECD
T4 construct: extracellular domain; also called Siglec-8 ECD; full Siglec-8 ECD
T4 sequence (Q9NYZ4 17-363): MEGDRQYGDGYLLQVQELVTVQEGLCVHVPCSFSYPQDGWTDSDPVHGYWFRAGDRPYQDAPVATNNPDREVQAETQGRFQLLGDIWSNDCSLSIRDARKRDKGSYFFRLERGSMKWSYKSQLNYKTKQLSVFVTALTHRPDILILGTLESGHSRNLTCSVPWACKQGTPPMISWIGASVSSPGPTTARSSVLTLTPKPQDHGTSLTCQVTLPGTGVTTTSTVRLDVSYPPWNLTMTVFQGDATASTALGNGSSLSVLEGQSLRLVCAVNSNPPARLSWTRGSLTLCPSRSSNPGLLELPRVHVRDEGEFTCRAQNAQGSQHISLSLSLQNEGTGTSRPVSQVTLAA

[5] = biological target: T5, human Siglec-8 Domain 1 Fusion Protein (human); test: ELISA, coated fusion protein, antibody at 1 µg/ml
T5 construct: fused to human Ig-Fc, expressed in CHO cells; also called Domain 1-Fc
T5 sequence (chain, as listed by the source limits assumed): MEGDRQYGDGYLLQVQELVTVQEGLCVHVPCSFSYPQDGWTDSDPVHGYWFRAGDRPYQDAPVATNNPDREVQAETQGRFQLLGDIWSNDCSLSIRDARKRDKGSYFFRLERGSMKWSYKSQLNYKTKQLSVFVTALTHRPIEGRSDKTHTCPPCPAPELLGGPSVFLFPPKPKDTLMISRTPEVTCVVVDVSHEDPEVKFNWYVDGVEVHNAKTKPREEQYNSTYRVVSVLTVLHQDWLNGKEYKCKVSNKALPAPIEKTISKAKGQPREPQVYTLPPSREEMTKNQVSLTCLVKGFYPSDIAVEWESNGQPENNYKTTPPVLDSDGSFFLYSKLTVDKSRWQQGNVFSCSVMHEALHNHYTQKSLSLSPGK
Experimental: as §1, §2

[6] = biological target: T6, human Siglec-8 Domains 1 and 2 Fusion Protein (human); test: ELISA, coated fusion protein, antibody at 1 µg/ml
T6 construct: fused to human Ig-Fc, expressed in CHO cells; also called Domain 1 + 2-Fc
T6 sequence (chain, as listed by the source limits assumed): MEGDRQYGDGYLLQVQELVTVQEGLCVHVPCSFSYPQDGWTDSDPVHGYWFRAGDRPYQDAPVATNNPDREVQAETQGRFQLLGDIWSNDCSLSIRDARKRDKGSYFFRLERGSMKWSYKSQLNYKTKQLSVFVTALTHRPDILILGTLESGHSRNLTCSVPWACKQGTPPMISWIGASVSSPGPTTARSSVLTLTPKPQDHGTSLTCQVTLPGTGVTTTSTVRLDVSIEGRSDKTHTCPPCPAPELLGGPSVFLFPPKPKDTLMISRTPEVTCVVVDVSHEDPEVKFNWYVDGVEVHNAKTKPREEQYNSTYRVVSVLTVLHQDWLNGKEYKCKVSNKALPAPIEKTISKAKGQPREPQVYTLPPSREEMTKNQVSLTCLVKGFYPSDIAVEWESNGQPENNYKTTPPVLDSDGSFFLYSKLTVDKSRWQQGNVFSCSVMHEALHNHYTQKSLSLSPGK
Experimental: as §1, §2

[7] = biological target: T1, human Siglec-8 Domains 1, 2, and 3 …; test: ELISA, coated fusion protein, antibody at 1 µg/ml
Experimental: as §1, §2

[8] = biological target: T4, recombinant human Siglec-8 …; test: ELISA, coated Siglec-8 ECD; remark: listed apart in the source
[9] = biological target: T3, human Siglec-8 on human cells …; test: cell-based or functional assay; remark: listed apart in the source
[10] = biological target: T7, Dimeric Siglec-8 (human Siglec-8 ECD protein) (human, UniProt Q9NYZ4 17-363); test: SPR (Biacore), antibody captured, dimeric Siglec-8 as analyte, 1:1 global fit (avidity)
T7 construct: extracellular domain; Analyte of the Biacore avidity assay
T7 sequence (Q9NYZ4 17-363): as the sequence (Q9NYZ4 17-363) above
Experimental: Antibody avidity determination was carried out by SPR analysis using a Biacore T200. Binding of human Siglec-8 ECD protein to mouse, chimeric and humanized anti-Siglec-8 antibodies was measured on a […]. The capture antibodies (goat-anti-human-Fc and goat-anti-mouse-Fc from Jackson Immunoresearch) were immobilized on a CM5 chip according to manufacturer's protocol (Biacore, GE). Flow-cell 1, 2 and 3 were immobilized with anti-human, and flow cell 4 with anti-mouse antibodies. The assay was conducted at 25° C., at a flow rate of […]. Assay buffer was 20 mM Tris-HCl pH 8.3, 150 mM Sodium Chloride, 0.05% Polysorbate 20, 10% glycerol, 0.1% BSA, made in ultrapure water. Dimeric Siglec-8 (impurities of monomeric and oligomeric Siglec-8 were removed by size-exclusion chromatography) was diluted in assay buffer from 15 nM to […] with 2× dilutions. Antibodies were captured to a change of approximately 120 RU. Six-minute high performance injections were conducted, followed by 120-minute dissociations. Flow cells were regenerated with 50 mM glycine pH 1.5. Results were double blanked with an empty reference cell and multiple assay buffer injections, and analyzed with 1:1 global fit parameters.

[11] = biological target: T2, baboon Siglec-8 Domains 1, 2, and 3 …; test: ELISA, coated fusion protein
Experimental: as §1, §2

[12] = biological target: T5, human Siglec-8 Domain 1 Fusion Protein; test: ELISA, coated fusion protein
Experimental: as §1, §2

T1 sequence (chain, as listed by the source limits assumed): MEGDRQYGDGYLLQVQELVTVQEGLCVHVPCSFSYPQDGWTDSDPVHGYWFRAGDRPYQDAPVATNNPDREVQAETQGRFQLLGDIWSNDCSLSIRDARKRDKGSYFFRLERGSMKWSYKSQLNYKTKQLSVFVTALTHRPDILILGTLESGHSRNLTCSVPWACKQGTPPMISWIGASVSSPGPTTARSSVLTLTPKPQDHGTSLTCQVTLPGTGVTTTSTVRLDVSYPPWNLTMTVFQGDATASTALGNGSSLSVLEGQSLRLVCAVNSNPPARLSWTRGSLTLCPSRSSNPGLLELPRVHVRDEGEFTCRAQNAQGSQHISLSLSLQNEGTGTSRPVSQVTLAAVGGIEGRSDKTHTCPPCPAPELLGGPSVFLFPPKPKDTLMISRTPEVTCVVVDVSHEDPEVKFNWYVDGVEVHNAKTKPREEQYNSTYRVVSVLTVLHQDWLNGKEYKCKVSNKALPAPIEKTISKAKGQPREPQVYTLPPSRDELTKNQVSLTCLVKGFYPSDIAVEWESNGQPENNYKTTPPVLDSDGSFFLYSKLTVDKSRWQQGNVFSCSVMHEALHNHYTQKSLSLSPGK

Row | Binder | binding result [4] | Mean EC50 (ng/ml) for eosinophil depletion [9] | Kd [10] | koff [10] | kon [10] | Mean EC50 (ng/ml) for eosinophil killing (2 donors) [3] | further results
1 | murine 1H10 antibody (antibody, mouse IgG1, V domains shown, murine IgG1 heavy chain and kappa light chain) VH: EVQLQQSGAELVRPGASVKLSCTASGFNIKDYYMYWVKQRPEQGLEWIGRIAPEDGDTEYAPKFQGKATVTADTSSNTAYLHLSSLTSEDTAVYYCTTEGNYYGSSILDYWGQGTTLTVSS VL: DIQMTQTTSSLSASLGDRVTISCRASQDITNYLNWYQQKPDGTVKLLIYFTSRLHSGVPSRFSGSGSGTDYSLTISNLEQEDIATYFCQQGNTLPWTFGGGTKLEIK |  |  |  |  |  | 41 ng/mL | binding result [1]: binds; binding result [2]: binds
2 | HA2KD (antibody, human IgG1, V domains shown, human IgG1/kappa) VH: QVQLQESGPGLVKPSETLSLTCTVSGGSISIYGAHWIRQPPGKGLEWIGVIWAGGSTNYNSALMSRVTISVDTSKNQFSLKLSSVTAADTAVYYCARDGSSPYYYSMEYWGQGTLVTVSS VL: EIVLTQSPATLSLSPGERATLSCSATSSVSYMHWFQQKPGQAPRLWIYSTSNLASGIPARFSGSGSGTDFTLTISSLEPEDFAVYYCQQRSSYPFTFGPGTKLDIK | no binding |  |  |  |  |  | 
3 | HEKA IgG1 antibody (antibody) heavy: not shown light: EIVLTQSPATLSLSPGERATLSCSATSSVSYMHWFQQKPGQAPRLLIYSTSNLASGIPARFSGSGSGTDFTLTISSLEPEDFAVYYCQQRSSYPFTFGPGTKLDIKRTVAAPSVFIFPPSDEQLKSGTASVVCLLNNFYPREAKVQWKVDNALQSGNSQESVTEQDSKDSTYSLSSTLTLSKADYEKHKVYACEVTHQGLSSPVTKSFNRGEC |  | 4.3 ng/mL | 0.017 nM | 1.11e-05 s⁻¹ | 638000 M⁻¹ s⁻¹ |  | binding result [5]: binds; binding result [6]: binds; binding result [7]: binds; EC50 [8]: 0.068 nM and 0.054 nM and 0.064 nM and 0.112 nM
4 | HEKF IgG1 antibody (antibody, V domains shown, also called HEKF T2) VH: EVQLVESGGGLVQPGGSLRLSCAASGFSLTIYGAHWVRQAPGKGLEWVGVIWAGGSTNYNSALMSRFTISKDNSKNTVYLQMNSLRAEDTAVYYCARDGSSPYYYSMEYWGQGTTVTVSS VL: EIVLTQSPATLSLSPGERATLSCSATSSVSYMHWFQQKPGQAPRLLIYSTSNLASGIPARFSGSGSGTDYTLTISSLEPEDFAVYYCQQRSSYPFTFGPGTKLDIKR |  | 6.7 ng/mL | 0.021 nM | 1.4e-05 s⁻¹ | 678000 M⁻¹ s⁻¹ |  | EC50 [8]: 0.064 nM and 0.074 nM and 0.052 nM and 0.097 nM
5 | murine 1C3 antibody (antibody, mouse IgG2a, V domains shown, murine IgG2a heavy chain and kappa light chain) VH: EVQVVESGGDLVKSGGSLKLSCAASGFPFSSYAMSWVRQTPDKRLEWVAIISSGGSYTYYSDSVKGRFTISRDNAKNTLYLQMSSLKSEDTAMYYCARHETAQAAWFAYWGQGTLVTVSA VL: QIVLTQSPAIMSASPGEKVTMTCSASSSVSYMHWYQQKSGTSPKRWIYDTSKLAYGVPARFSGSGSGTSYSLTISSMEAEDAATYYCQQWSSNPPTFGGGTKLEIK |  |  |  |  |  | 7.7 ng/mL | binding result [6]: binds; binding result [7]: binds; binding result [11]: no binding (tested: 1 µg/ml); binding result [12]: no binding (tested: 1 µg/ml)
6 | mouse 2E2 antibody (antibody, mouse IgG1, kappa, murine IgG1/kappa; also called m2E2; murine 2E2) heavy: QVQLKRASGPGLVAPSQSLSITCTVSGFSLTIYGAHWVRQPPGKGLEWLGVIWAGGSTNYNSALMSRLSISKDNSKSQVFLKINSLQTDDTALYYCARDGSSPYYYSMEYWGQGTSVTVSSAKTTPPSVYPLAPGSAAQTNSMVTLGCLVKGYFPEPVTVTWNSGSLSSGVHTFPAVLESDLYTLSSSVTVPSSPRPSETVTCNVAHPASSTKVDKKIVPRDCGCKPCICTVPEVSSVFIFPPKPKDVLTITLTPKVTCVVVDISKDDPEVQFSWFVDDVEVHTAQTQPREEQFNSTFRSVSELPIMHQDWLNGKEFKCRVNSAAFPAPIEKTISKTKGRPKAPQVYTIPPPKEQMAKDKVSLTCMITDFFPEDITVEWQWNGQPAENYKNTQPIMNTNGSYFVYSKLNVQKSNWEAGNTFTCSVLHEGLHNHHTEKSLSHSPG light: QIILTQSPAIMSASPGEKVSITCSATSSVSYMHWFQQKPGTSPKLWIYSTSNLASGVPVRFSGSGSGTSYSLTISRMEAEDAATYYCQQRSSYPFTFGSGTKLEIKADAAPTVSIFPPSSEQLTSGGASVVCFLNNFYPKDINVKWKIDGSERQNGVLNSWTDQDSKDSTYSMSSTLTLTKDEYERHNSYTCEATHKTSTSPIVKSFNRNEC |  | 6.8 ng/mL | 0.028 nM | 1.54e-05 s⁻¹ | 556000 M⁻¹ s⁻¹ | 6.9 ng/mL | binding result [11]: no binding (tested: 1 µg/ml)
7 | murine 4F11 antibody (antibody, mouse IgG1, V domains shown, murine IgG1 heavy chain and kappa light chain) VH: QVQLQQSGAELVKPGASVKISCKASGYAFRSSWMNWVKQRPGKGLEWIGQIYPGDDYTNYNGKFKGKVTLTADRSSSTAYMQLSSLTSEDSAVYFCARLGPYGPFADWGQGTLVTVSA VL: QIVLTQSPAIVSASPGEKVTMTCSASSSVSYMYWYQQRPGSSPRLLIYDTSSLASGVPVRFSGSGSGTSYSLTISRIESEDAANYYCQQWNSDPYTFGGGTKLEIK |  |  |  |  |  | 5.9 ng/mL | binding result [1]: binds; binding result [2]: binds

Further lines, with some results ahead:

Row | binding result [4] | Mean EC50 (ng/ml) for eosinophil depletion [9] | Kd [10] | koff [10] | kon [10] | Binder | Mean EC50 (ng/ml) for eosinophil killing (2 donors) [3] | further results
8 | no binding |  |  |  |  | HA2KG (antibody, human IgG1, V domains shown, human IgG1/kappa) VH: QVQLQESGPGLVKPSETLSLTCTVSGGSISIYGAHWIRQPPGKGLEWIGVIWAGGSTNYNSALMSRVTISVDTSKNQFSLKLSSVTAADTAVYYCARDGSSPYYYSMEYWGQGTLVTVSS VL: EIVLTQSPATLSLSPGERATLSCSATSSVSYMHWYQQKPGQAPRLLIYSTSNLASGIPARFSGSGSGTDFTLTISSLEPEDFAVYYCQQRSSYPFTFGPGTKLDIK |  | 
9 | no binding |  |  |  |  | HA2KE (antibody, human IgG1, V domains shown, human IgG1/kappa) VH: QVQLQESGPGLVKPSETLSLTCTVSGGSISIYGAHWIRQPPGKGLEWIGVIWAGGSTNYNSALMSRVTISVDTSKNQFSLKLSSVTAADTAVYYCARDGSSPYYYSMEYWGQGTLVTVSS VL: EIVLTQSPATLSLSPGERATLSCSATSSVSYMHWFQQKPGQAPRLLIYSTSNLASGVPARFSGSGSGTDFTLTISSLEPEDFAVYYCQQRSSYPFTFGPGTKLDIK |  | 
